The source of these data is the supplement of paper PMC9170038.

For data set [1], the system named is MS2 coat protein. As to the kind of experiment: apparent KD of MS2 coat protein, switch OFF state (with FMN for OFF switches, without FMN for ON switches); designed switch direction (-1 OFF switch, 1 ON switch): -1; higher = weaker reporter binding. The following applies: FMN input: 0 or 200 uM; Eterna round: R93 (includes R88 designs). The gist of the method:
(§1)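 Apparent KD is reported per design as the median of normalised binding-curve fits across its clusters. The RNA switches were made by on-chip transcription from Illumina sequencing clusters. SNAP-549-labelled MS2 coat protein was then added in twofold steps (0.7 or 1.5 nM to 3 µM; 0.8–1.5 h to 10–20 min per step) in 100 mM Tris-HCl pH 7.5, 80 mM KCl, 4 mM MgCl2, without or with constant ligand.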

The subject of data set [2] is MS2 coat protein. As to the kind of experiment: apparent KD of MS2 coat protein, switch ON state; designed switch direction (-1 OFF switch, 1 ON switch): -1; higher = weaker reporter binding. The following applies: FMN input: 0 or 200 uM; Eterna round: R93 (includes R88 designs). A digest of the protocol: as §1

“AACUGACAUGAGGAUCACCCAUGUCAGGAUAUGACUUCGAAAAAAAAAAAAAACGAUGUCAGAAGGGACAUGGG [Design 69: Sub-opt OB]”: the “apparent KD of MS2 coat protein” value worked out at 22.3 nM with MS2 coat protein [1] and 17.6 nM in the data set on MS2 coat protein [2].

“AAAGUGUGAGGAUAUGUGAAAGGACACGAAAGUGACAAAGAACAGAAGGUACAUGAGGAUCACCCAUGUAAAAA [milkweed 20]”: the “apparent KD of MS2 coat protein” value in the data set with MS2 coat protein [1] is 23.5 nM; in the data set with MS2 coat protein [2], 27.4 nM.

Take “ACAGUUACAGGAUAUACAUGGAAAAAUAAAAAUAAAAAACUACAUGAGGAUCACCCAUGUAGAAGGGUAACUGA [Ex2 Design 197: Random 12F]”: the “apparent KD of MS2 coat protein” value with MS2 coat protein [1] came to 86.9 nM; with MS2 coat protein [2], 42.9 nM.

For the sequence “AGAUGACAAGGAUAUACUAGGGAUGAUAGUAGAGAAGAAGAACAUGAGGAUCACCCAUGUAGAAGGUGUAAGAA [JR_Exc002_Sub1702]”, the entries for the “apparent KD of MS2 coat protein” value in the data set with MS2 coat protein [1] and in the data set on MS2 coat protein [2] were 61.1 nM and 70 nM, respectively.

On to “AAAAAACAUGAGGAUCACCCAUGUGAGGAUAUGCAAUAAAAAAUAAAAAUAAAACAUAGCAGAAGGCACACCAA [Amethyst 58]”, for which the results for the “apparent KD of MS2 coat protein” value in the data set with MS2 coat protein [1] and in the data set with MS2 coat protein [2] were 31.8 nM and 26.6 nM, respectively.

For the sequence “AAAAAACAUGAGGAUCACCCAUGUCAGGAUAUCCGAAAAAAAAAAAAAAAAAAACCUUGGAGAAGGGACAUUCC [Chica Displaced 6 - Jieux - Exclusion 1]”, the figures for the “apparent KD of MS2 coat protein” value with MS2 coat protein [1] and in the data set on MS2 coat protein [2] were 34.4 nM and 37.2 nM, respectively.

Regarding “AAAAAACAUGAGGAUCACCCAUGUAAGGAUAUGCAAAAAAAAAAAAUAAAAAAAAAAAGCAGAAGGUACAUAGA [Starry Exclusion 1.7 (wbt round 1 mod)]”, the “apparent KD of MS2 coat protein” value with MS2 coat protein [1] was found to be 40.6 nM; with MS2 coat protein [2], 36.6 nM.

Consider “AACUGACAUGAGGAUCACCCAUGUCAGGAUAUGCAUCUUAGGAAAAAAAAACUAAGAUGCAGAAGGGACAAGGG [Amethyst 48]”, for which the “apparent KD of MS2 coat protein” value in the data set with MS2 coat protein [1] is 33.1 nM; in the data set on MS2 coat protein [2] it was 22.7 nM.

“UGCAGGUGAGGAUAUGCGGGCGAUUAAACAUAUAAAUGCAAGCAGAAGGCACAUGAGGAUCACCCAUGUAGUCC [Ex4Try2_Neo]”: the “apparent KD of MS2 coat protein” value is 29.6 nM in the data set with MS2 coat protein [1] and 30.8 nM with MS2 coat protein [2].

“UCUUGACAUGAGGAUCACCCAUGUCAGGAUAUAGUAGGACAAAUAAAUAAAAGUAAUACUAGAAGGGAUAUGGG [Amethyst 52]”: the “apparent KD of MS2 coat protein” value in the data set with MS2 coat protein [1] was found to be 32.6 nM; in the data set with MS2 coat protein [2], 29.8 nM.

Consider “AGGAAACAUGAGGAUCACCCAUGUGAGGAUAUACAAAAGAAAAGAAAAGAAAGAAGAAGUAGAAGGCACAAGAA [Thesh]”, for which the “apparent KD of MS2 coat protein” value with MS2 coat protein [1] came out at 29.5 nM; with MS2 coat protein [2], 26.2 nM.

“AGCUAGUCAGGAUAUACGAACACGUCAAAAGACGUGAAGGGACAUGAGGAUCACCCAUGUAGAAGGGACUAGCA [Mat - Exclusion 2 - JL mod - D24]”: the “apparent KD of MS2 coat protein” value in the data set with MS2 coat protein [1] amounted to 114 nM; with MS2 coat protein [2] it was 29.8 nM.

Consider “AGAAAGUUAGGAUAUACAGAUAAAAAAACGAAAAAAAAUCUGUAGAAGGAACAUGAGGAUCACCCAUGUAAAGA [Mat - Exclusion 4 - Mayanna - D105]”, for which the “apparent KD of MS2 coat protein” value with MS2 coat protein [1] was found to be 23.2 nM; in the data set with MS2 coat protein [2], 28.7 nM.

For “AAGAAACAUGAGGAUCACCCAUGUGAGGAUAUAGAAGAAAGAAAGAAAGAAAGAAGAACUAGAAGGCACAAAGG [Aemilius Rectus]”, the “apparent KD of MS2 coat protein” value in the data set on MS2 coat protein [1] was determined as 35.3 nM; in the data set with MS2 coat protein [2], 33.1 nM.

Take “AAAAAUGGAGGAUAUACAUGAGGAUCACCCAUGUGUGGGCAUACUAUGUGGGCGUCAGGUAGAAGGCCAAAAAA [Gilly Gone Silly 25 - Jieux - Exclusion 3]”: the “apparent KD of MS2 coat protein” value in the data set with MS2 coat protein [1] is 273 nM; with MS2 coat protein [2] it was 93.7 nM.

Turning to “AAAAAGUGAGGAUAUACAUGAGGAUCACCCAUGUAAAAGGUCGCGGGAGCGGAGGACGGUAGAAGGCGCAAAAA [Excls3-VIIi]”, the “apparent KD of MS2 coat protein” value in the data set with MS2 coat protein [1] worked out at 28.9 nM; in the data set on MS2 coat protein [2] it was 25.3 nM.
